In paper PMC11665464, “The molecular chaperone ALYREF promotes R-loop resolution and maintains genome stability”:

Target: ALYREF-ΔRRM (human, UniProt Q86V81 1-257, del108-179)
Assay: EMSA; 35 mM Tris-HCl pH 7.5, 1 mM DTT, 100 ug/ml BSA, 1 mM MgCl2, 100 mM KCl, 10 min at 30 C; 5 nM nucleic acid; gel at 4 C
Settings: protein: recombinant; tags: His6; label: 32P; three-strand 5' RNA flap; RNA and DNA2 share the complement on DNA1

B1: 5' RNA-DNA flap (R-Flap, migratable R-loop mimic) (mixed)
DNA 1: ACGCTGCCGAATTCTACCAGTGCCTTGCTAGGACATCTTTGCCCACCTGGTGGTGGGACC
DNA 2: GGTCCCACCACCAGGTGGGCAAAGATGTCCCAGCAAGGCACTGGTAGAATTCGGCAGCGT
RNA: GGUCCCACCACCAGGUGGGCAAAGAUGUCC
  binding result: binds
